From the DeepSol protein solubility set

Experiment: soluble on expression in E. coli; label from the status in PepcDB or PDB records

Sequence | soluble on expression in E. coli
MGSDKIHHHHHHMTQPELTPAQRTEVELLARGRADKSRVLRDLKLPETPEAAHALLLRLGVWDEARTPYADRLRAALNAVELPVPDFDPAEERLDLTHLPTFAIDDEGNQDPDDAVGVEDLGGGLTRLWVHVADVAALVAPDSPLDLEARARGATLYLPDRTIGMLPDELVAKAGLGLHEVSPALSICLDLDPDGNAEAVDVLLTRVKVQRLAYQEAQARLEAGEEPFVTLARLARASRRLREGEGALSIDLPEVRVKADETGASVFPLPKPEMRTVVQECMTLAGWGTAIFADDNEIPLPFATQDYPTREVAGDTLPAMWARRKTLARTRFQPSPGPHHGMGLDLYAQATSPMRRYLDLVVHQQLRAFLAGRDPLSSKVMAAHIAESQMNADATRQAERLSRRHHTLRFIAAQPERVWDAVVVDRRGAQATLLIPDLAFDVQVNTPAAPGTALQVQFADIDLPQMRVRARSV | not soluble
MGSDKIHHHHHHMAFILMQNINKTFHGVKALNRVNLSLDYGEALCLAGQNGCGKSTLIKILSGVYQPDKGAEIQIGASKYTKLTPQASIEQGIQVIYQDLALFPNLTVAENIAINLHRKLGWVSQSEIHQVALNAILSINADLDLNAILEDLPIAQQQLVAICRALAQNARLLIMDEPTASLTAKEVQDLLKVVLKLKSKGISIIFVSHKLQEVMSVSDTVLVLKNGNMVGQYPISEMDEKRLGFLMTGLEIDYKRLDLPDFSQNRTVLEVQNLTLPNQYESINFSLREGEIIALTGLLGSGRTELCLSLFGITQPKSGDILLNGEKVIFQNNRDAIKQGIAYVSEDRMTTGLIMTESIHHNIISTIFHKITDKFNIIKSSKAYNYSQELIESLKIKVTDSDLPVNTLSGGNAQRVSIAKWLAIDPRIIILDAPTIGVDIANKEGIFQIIRTLAQKGIAVIFVTDEVEEAYYNSHKVIVMKKGKIVGEILPIYTTEKSIAEVVYENHQ | not soluble
MSLLTEVETYVLSIIPSGPLKAEIAQKLEDVFAGKNTDLEALMEWLKTRPILSPLTKGILGFVFTLTVPSERGLQRRRFVQNALNGNGDPNNMDRAVKLYKKLKREITFHGAKEVALSYSTGALASCMGLIYNRMGTVTTEVAFGLVCATCEQIADSQHRSHRQMATITNPLIRHENRMVLASTTAKAMEQMAGSSEQAAEAMEVANQARQMVQAMRTIGTHPNSSAGLRDNLLENLQAYQKRMGVQMQRFK | soluble
MAAFNDTLRAEIEEKKEDSVSERTTRNGKILNAKDEPEFGMNITPTTLFFKYPIGGIGYSFFTVTNTTSEKQAFKVKSSDNTWFRSKPSVGFIKSGEKVHVRVTFNSPDAGKERPERGSDNKNHVAIFHVAAGDAKTYKEAFAKKAADGVHHFFARHLAEPGAQVDKEADEKAPNGA | soluble
RKEIQPIRELAKAATLMSSRLDVPEVSERGSNELKAAVRAFNKMNRRIDSHIKDREMLFSAISHDLKTPIACLKLRAEMLDDDADRERFIRLSNDLDLMVKGALQCIKETDIHEEIEPINFTQLIQHISSNIADAPDTIRIHGEIRTHFAGK | not soluble
MSGINGAGPSNFFWRWRADDEPVTERERDSSSGANLTNSPQLRPESPTVSGRRLLRSNALSRQTREWQETTSASAERATPPVEPRQPPEAQPAERIVAERIVQELVRAGANLNNVRTMLRNVMDNNAVAFSRVEWNILLQHFPDMHTNGISSDSVLANELRQTLRQVVHQQRTQRALAPILSPAPSRPVASSSRSSQRTLLGRFTGWMAPRQTSSSSQATSSTSVDRHPQDLNQLESLRLADAERRNRSANQTDTDEALRRLTQAGVDMERLSTSLGRYIHSFQPAPPDLRRLLESVGIDPDIPEELTLVNNPVLNLNVALNRMLASRQATTESSSVFPSRAGDTRVRTLPVMPEREDNENNVAYGVRLLRLNPEAEVERVVEAFITDPSSRPEVVADIHAVLRSITSQFRQLRTISKADAESQDFRDAADYPDDPTSCLFGEDLSLSNPHQQVIGLAGESTDILQPYSQEGNKALRFMDMKKLAEHLASKPVHPMNRDRLDDKNIAGYAFRVVPD | not soluble
NKSIRMTPSQVAFEIRGTLLPGEVFAICGSCDALGNWNPQNAVALLPENDTGESMLWKATIVLSRGVSVQYRYFKGYFLEPKTIGGPCQVIVHKWETHLQPRSITPLESEIIIDDGQFGIHNGVETLDSGWLTCQTEIRLRLHYSEKPPVSITKKKLKKSRFRVKLTLEGLEEDDDDRVSPTVLHKMSNSLEISLISDNEFKCRHSQPECGYGLQPDRWTEYSIQTMEPDNLELIFDFFEEDLSEHVVQGDALPGHVGTACLLSSTIAESGKSAGILTLPIMSRNSRKTIGKVRVDYIIIKPLPGYSCDMKSSFSKYWKPRIPLDVGHRGAGNSTTTAQLAKVQENTIASLRNAASHGAAFVEFDVHLSKDFVPVVYHDLTCCLTMKKKFDADPVELFEIPVKELTFDQLQLLKLTHVTALKSKDRKESVVQEENSFSENQPFPSLKMVLESLPEDVGFNIEIKWICQQRDGMWDGNLSTYFDMNLFLDIILKTVLENSGKRRIVFSSFDADICTMVRQKQNKYPILFLTQGKSEIYPELMDLRSRTTPIAMSFAQFENLLGINVHTEDLLRNPSYIQEAKAKGLVIFCWGDDTNDPENRRKLKELGVNGLIYDRIYDWMPEQPNIFQVEQLERLKQELPELKSCLCPTVSRFVPSSLCGESDIHVDANGIDNVENA | soluble
TKRYYKSAFPVRICVIQYEMKKIYSFEEFANQVEYYVDVASDARSDFAVFPEIFTTQLMSFLEERSPSLAVQRITEYTEDYISLFTDLAVKYNVNIIGGSHFVEEEGKIYNIAYLFRRDGTIEKQYKLHITPNERKWWGISAGDQVRVFDTDCGKIAIQICYDIEFPELARIAADKGAKIIFTPFCTEDRQGYLRVRYCSQARAVENQIYTVISGTVGNLPQTENMDIQYAQSGIFAPSDFEFARDGIVGETNPNIEMVVIGDVDLEILRRQRQNGTVRQLKDRRRDIYHIQYKK | not soluble
MKNSLCNSVSSVVKKLLEYGEDGTPVYVNELTALNQELRNLCADLLLQKGESPEEEAEILVTLFKGYDTMLFNFSSENEQVIQELLDRSMTVLEKLPASVLKCQLLLECFEQTGDEELIREAKKNIERVI | soluble
MSLPIDTWFPLAVSRNLLTPDPALHERMVAQIFQWRGDLWANPSGESAWTGDMNGVALVHEHPDFAWLRSQVEVEALQFCQALGFQTEALQLWIQRSWPVVSEPGQSIGAHHHPNAHLSAIYYLNGSGDPELGALRIFDDRPRNELVPGLAVGYGEVIAEEAALNQAWIDYPPQAGLLLMFPASTRHGVTENLTDLTRLSVSFDLYLTARSATELAPEYLAPPVNRWSPIQLREGHHHHHH | soluble
SSRERIKRELPPVQEHIDKLRKVIEEGNYYGALQMYKSISARYVTAQRFSEALDILFSGACIELEHGLVNCGADLAILFVDTLVKATSPCNDETLDRIRCIFKLFPRVPVPPHLVDVSDDEDVQNLQESLGEARSRVENLTSFLRAAIKWSAEFGGPRTGYPELHAMLGDYLYTECPELDMVRISRHFVRAEDPEKFASMLVNFMGRCYPGEDDLAIARAVLMYLSMGNMKDANFMMDEIKKQAETKNPELSESDLIQFISYLLETLQRDALPLFNMLRVKYKSSIDRDQLLNELLDEIAERFYGVQRKNPLQGMFGDIFKMMG | soluble
MFKRVLIANRGEIAVRAIRACRELGLKTVAIYSEADKNSLHVELADEAICIGPPDPSKSYLDIPRIMSALEVSKADAVYPGYGFLSENPKFAEIVEKSGAKFIGPRSEVLAKIGDKVLAKKVAKEVGLPLVPGSDEPLEFSEAVKLASKIGYPVVIKAAAGGGGRGIRIIRDEKELREKFPLAKKEAESAFGDGRLYIEKYVINPKHIEFQVIADEHGNVYVLGERECSIQRRHQKLIEEAPSVSVSEEKRKEISEKVAEFCKRLGYTSAGTVEFLMDEEGNFYFMEMNGRIQVEHPVTEMVTGVDIVKLQLIAAMGEEIKLEKVETNGFAIEFRINAEDPVTFIPSPGQVEKLILPGGPGVRVDTHLYQGYTVPPYYDSLLAKIIVWGNTRQEAIARGKRALGELKIEGKGLKVNTEFHLRVLDQKEFIEGKHDITFVERIMV | soluble
MGSDKIHHHHHHMNSTTKSKEFEQHYSGTLSDYVTAIAWSPQGKTLAATSAAGEVVLWNDGELTTLQTGNGKSVDCLAFSPDGKFLAVGGQDGQVKIWQNTELIATLENAPAWVDKLAWNYTSNQLAFSLGRYVQVWDVDTHEIVVTLNFDNSSVLGIDWRIDGQYLAISGYKGVKIWHSQNWDEEPYSLDMTTVSLAMAWSPDGKFLASGNMDRSVTVLEWNNPDPWVMRGFPGKIRQLAWSEAMTKVGAPILASSSVEGIVVWEKLEDDTLGWEARVLTNHVGTINAIAFAPKSFLLASAAADGWLCLWNQAKEVSQIITGVSGGFSTLAWHPQGKLLAAGGEQGELVIWSKVLRGQGFGRS | not soluble
MGSCCSCLNRDSVPDNHPTKFKVTNVDDEGVELGSGVMELTQSELVLHLHRREAVRWPYLCLRRYGYDSNLFSFESGRRCQTGQGIFAFKCSRAEEIFNLLQDLMQCNSINVMEEPVIITRNSHPAELDLPRAPQPPNALGYTVSSFSNGCPGEGPRFSAPRRLSTSSLRHPSLGEESTHALIAPDEQSHTYVNTPASEDDHRRGRHCLQPLPEGQAPFLPQARGPDQRDPQVFLQPGQVKFVLGPTPARRHMVKCQGLCPSLHDPPHHNNNNEAPSECPAQPKCTYENVTGGLWRGAGWRLSPEEPGWNGLAHRRAALLHYENLPPLPPVWESQAQQLGGEAGDDGDSRDGLTPSSNGFPDGEEDETPLQKPTSTRAAIRSHGSFPVPLTRRRGSPRVFNFDFRRPGPEPPRQLNYIQVELKGWGGDRPKGPQNPSSPQAPMPTTHPARSSDSYAVIDLKKTVAMSNLQRALPRDDGTARKTRHNSTDLPL | soluble
MALGETKGIILFTKDFKEKDKLVKIFTESYGKLMFFVKGAHRKNNPLLPAILPFTEAVYIGNFREEGLSFLNSSKEVQPFRNIQQDIFINAYGTYILNLVDAAIEDQHYDPNLFQFTHMALSALNEQKDPEIITNIFEIQLLERFGVRPEWHHCVACGETQGKFDYSSKYSGVLCEKHWHLDEQRYHADPRAIHFIRLFSQVSYEKVQNIQVKEETKKSIRETIDMLYDEYVGLHLKSKKFIDQMKTWENTLKIPPRKKEEK | not soluble
MTWLTKDGRFAVYEDPFVTKLMNTIGSMTFDGLGFTLLELYRDLVISADNYFMNYVNYGETPHDVGEESIEDPIYGASYPYWWTDLGPTLVLMLYRDYVFTSNREILEKNYNKIKEIIDWLIRKDMDNDCIPDSKGGYDNSYDGTHMYGASSYIASMFLSALTAFIKMSEILDVKIDDKYYRFLECGKKTFNSLWNGKYFILWKKNDEENTSCLNSQLLGQFWCDILGLPPITDHDKINTALRSIYELNFKASKYCLTNAVREDGSVDSSTAQLRSCWPRVSFAVAAHMILRGMVKEGIEVAKREWETIKELNPFDQSSRIDAIDGKYVGLMSYIGSTSVWLLKLALDKIRLEHHHHHH | not soluble
SLKITDVQLTAIGMPRLTGFVNKHVIVQLFTDEGIEGIGEMSDFSHLPKYAVDIVDLERTLKQILVGKNPFDIAPINTELNGNFPEAMYYYEKGSFIRNGVDTALYDLCAKALGVSVSDLLGGRQREKIKVCFPIFRHRFMDEVEANLELVKKQYEKGFDVFRLYVGKNVDADEAFLAGVYNEFGGKVKVKSLDFSHLLDWKEALRITRRLAKYPIDLVESPALRNDFAGLHHFRMRCELPVSEHVWSLRQQSEMIKHDSVDIFNIAPVFIGGITQARKAADAAAVAEKSVLIGTTQELSIGTTAMAYFGSTLDHLNYISDPTGPELYVGDVVKNKVNYENGYLHLPERSTIGLGMELDWEKVEQYRVESLNWEDVSVHQLQDRTAQTRA | not soluble
